In data set [1] the target is FITC-labeled bovine type-1 collagen (Chondrex, Cat# 4001), P02453.
In data set [2] the target is T1, synthetic MMP1 substrate MCA-Lys-Pro-Leu-Gly-Leu-DPA-Ala-Arg-NH2 (R&D Systems, Cat# ES010).
T1 chain: KPLGLXAR

Sequence of FITC-labeled bovine type-1 collagen (Chondrex, Cat# 4001), P02453 (P02453 162-1217, chain 1 of 2): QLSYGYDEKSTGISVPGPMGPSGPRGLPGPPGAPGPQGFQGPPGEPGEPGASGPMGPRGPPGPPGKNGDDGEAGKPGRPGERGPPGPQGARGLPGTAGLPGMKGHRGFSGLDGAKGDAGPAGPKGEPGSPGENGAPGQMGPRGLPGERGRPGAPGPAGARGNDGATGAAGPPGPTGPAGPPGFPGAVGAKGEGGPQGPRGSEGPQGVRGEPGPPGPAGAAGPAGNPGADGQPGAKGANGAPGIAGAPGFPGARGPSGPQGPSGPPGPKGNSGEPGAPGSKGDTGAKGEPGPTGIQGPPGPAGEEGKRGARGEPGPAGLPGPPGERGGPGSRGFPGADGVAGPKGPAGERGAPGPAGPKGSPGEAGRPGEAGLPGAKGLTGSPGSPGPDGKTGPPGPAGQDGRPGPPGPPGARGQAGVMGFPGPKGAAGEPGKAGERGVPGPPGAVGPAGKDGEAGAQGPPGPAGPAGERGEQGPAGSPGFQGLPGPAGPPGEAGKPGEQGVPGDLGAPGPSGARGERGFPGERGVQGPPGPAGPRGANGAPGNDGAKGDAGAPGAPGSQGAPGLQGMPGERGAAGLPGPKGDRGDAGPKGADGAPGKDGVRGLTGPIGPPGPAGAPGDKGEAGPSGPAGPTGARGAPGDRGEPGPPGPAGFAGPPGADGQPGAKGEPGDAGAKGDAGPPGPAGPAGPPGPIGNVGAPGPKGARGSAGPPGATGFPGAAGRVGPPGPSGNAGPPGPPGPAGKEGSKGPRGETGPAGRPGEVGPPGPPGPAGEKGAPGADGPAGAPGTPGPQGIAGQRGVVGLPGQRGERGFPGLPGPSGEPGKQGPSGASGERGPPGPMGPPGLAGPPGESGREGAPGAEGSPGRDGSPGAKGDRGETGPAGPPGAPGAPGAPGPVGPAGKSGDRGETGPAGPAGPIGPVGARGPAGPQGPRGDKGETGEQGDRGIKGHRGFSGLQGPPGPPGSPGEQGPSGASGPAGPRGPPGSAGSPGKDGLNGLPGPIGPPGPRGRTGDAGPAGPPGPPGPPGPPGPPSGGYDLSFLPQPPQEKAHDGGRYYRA
Sequence of FITC-labeled bovine type-1 collagen (Chondrex, Cat# 4001), P02453 (P02453 other isoform, or with tags, fused parts or gaps, chain 2 of 2): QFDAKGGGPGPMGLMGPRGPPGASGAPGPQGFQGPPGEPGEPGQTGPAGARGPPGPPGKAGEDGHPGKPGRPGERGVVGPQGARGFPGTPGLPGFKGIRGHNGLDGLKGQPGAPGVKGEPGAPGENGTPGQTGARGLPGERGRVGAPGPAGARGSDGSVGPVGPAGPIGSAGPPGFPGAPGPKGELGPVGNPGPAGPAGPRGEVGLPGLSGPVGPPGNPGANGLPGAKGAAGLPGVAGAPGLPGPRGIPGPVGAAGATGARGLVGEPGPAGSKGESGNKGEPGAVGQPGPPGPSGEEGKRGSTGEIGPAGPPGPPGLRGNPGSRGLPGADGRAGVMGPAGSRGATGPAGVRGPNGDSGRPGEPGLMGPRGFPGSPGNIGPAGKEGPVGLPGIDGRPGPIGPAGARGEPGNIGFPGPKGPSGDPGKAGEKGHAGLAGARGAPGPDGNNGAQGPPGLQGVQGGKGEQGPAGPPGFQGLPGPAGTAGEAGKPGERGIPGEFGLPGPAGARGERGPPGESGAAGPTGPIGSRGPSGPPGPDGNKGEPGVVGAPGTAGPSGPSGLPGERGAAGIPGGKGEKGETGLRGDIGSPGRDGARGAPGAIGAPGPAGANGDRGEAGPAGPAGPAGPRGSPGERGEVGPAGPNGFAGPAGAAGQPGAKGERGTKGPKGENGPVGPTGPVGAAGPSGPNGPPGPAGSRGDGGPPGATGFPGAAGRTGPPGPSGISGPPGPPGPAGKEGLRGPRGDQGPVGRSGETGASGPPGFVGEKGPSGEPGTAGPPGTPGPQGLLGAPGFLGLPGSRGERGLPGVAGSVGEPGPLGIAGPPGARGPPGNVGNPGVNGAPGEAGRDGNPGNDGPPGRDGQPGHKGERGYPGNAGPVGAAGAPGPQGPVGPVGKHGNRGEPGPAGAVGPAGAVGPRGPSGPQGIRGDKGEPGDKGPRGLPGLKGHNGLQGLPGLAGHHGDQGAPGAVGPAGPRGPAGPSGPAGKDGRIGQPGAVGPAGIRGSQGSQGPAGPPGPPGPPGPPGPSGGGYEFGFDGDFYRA

B1: trypsin-activated MMP1 (43 kD active human matrix metalloproteinase-1) (protein)
chain: VLTEGNPRWEQTHLTYRIENYTPDLPRADVDHAIEKAFQLWSNVTPLTFTKVSEGQADIMISFVRGDHRDNSPFDGPGGNLAHAFQPGPGIGGDAHFDEDERWTNNFREYNLHRVAAHELGHSLGLSHSTDIGALMYPSYTFSGDVQLAQDDIDGIQAIYGRSQNPVQPIGPQTPKACDSKLTFDAITTIRGEVMFFKDRFYMRTNPFYPEVELNFISVFWPQLPNGLEAAYEFADRDEVRFFKGNKYWAVQGQNVLHGYPKDIYSSFGFPRTVKHIDAALSEENTGKTYFFVANKYWRYDEYKRSMDPGYPKMIAHDFPGIGHKVDAVFMKDGFFYFFHGTRQYKFDPKTKRILTLQKANSWFNCRKN
Consider B1, for which, in data set [1], the “collagen cleavage on SDS PAGE” value was “active MMP1 cleaves type-1 collagen into ¾ and ¼ fragments”; the “kcat (weight-based collagen degradation assay)” value was ~19 monomers per MMP1 per hour; the kcat/MMP1/hr using 1 mg/ml concentration (+MMP1 for 1 hr) was 0.5 /MMP1/hr; the kcat/MMP1/hr using 1 mg/ml concentration (+MMP1 for 2 hr) is 0.21 /MMP1/hr. In data set [1], the kcat/MMP1/hr using 1 mg/ml concentration (+MMP1 for 3 hr) was 0.19 /MMP1/hr, the kcat/MMP1/hr using 1 mg/ml concentration (+MMP1 for 4 hr) is 0.15 /MMP1/hr, the kcat/MMP1/hr using 1 mg/ml concentration (+MMP1 for 5 hr) is 0.14 /MMP1/hr and the kcat/MMP1/hr using 1 mg/ml concentration (+MMP1 for 6 hr) was 0.11 /MMP1/hr. For the same protein, in data set [1], the kcat/MMP1/hr using 1 mg/ml concentration (+MMP1 for 7 hr) is 0.1 /MMP1/hr, the kcat/MMP1/hr using 1 mg/ml concentration (+MMP1 for 8 hr) is 0.1 /MMP1/hr, the kcat/MMP1/hr using 1 mg/ml concentration (+MMP1 for 9 hr) was 0.09 /MMP1/hr and the kcat/MMP1/hr using 1 mg/ml concentration (+MMP1 for 10 hr) was 0.09 /MMP1/hr. For the same protein, in data set [1], the kcat/MMP1/hr using 114.2 mg/ml concentration (+MMP1 for 1 hr) is 58 /MMP1/hr, the kcat/MMP1/hr using 114.2 mg/ml concentration (+MMP1 for 2 hr) is 24 /MMP1/hr, the kcat/MMP1/hr using 114.2 mg/ml concentration (+MMP1 for 3 hr) is 22 /MMP1/hr and the kcat/MMP1/hr using 114.2 mg/ml concentration (+MMP1 for 4 hr) was 17 /MMP1/hr. Besides, in data set [1], the kcat/MMP1/hr using 114.2 mg/ml concentration (+MMP1 for 5 hr) is 16 /MMP1/hr, the kcat/MMP1/hr using 114.2 mg/ml concentration (+MMP1 for 6 hr) is 13 /MMP1/hr, the kcat/MMP1/hr using 114.2 mg/ml concentration (+MMP1 for 7 hr) was 11 /MMP1/hr and the kcat/MMP1/hr using 114.2 mg/ml concentration (+MMP1 for 8 hr) is 11 /MMP1/hr. Further, in data set [1], the kcat/MMP1/hr using 114.2 mg/ml concentration (+MMP1 for 9 hr) was 10 /MMP1/hr and the kcat/MMP1/hr using 114.2 mg/ml concentration (+MMP1 for 10 hr) was 10 /MMP1/hr. In data set [2], the “reaction rate k (RFU of degraded substrate by 0.05 µg MMP1)” value is listed as “k=0.26±0.02 RFU/min”; the “specific activity (RFU)” value is on record as “k/0.05=5.2 RFU/min/µg”; the “specific activity (fluorogenic peptide substrate, 37° C.)” value was roughly 999 pmol/min/µg.

B2: catalytically inactive mutant MMP1 (E219Q) (protein)
chain: VLTEGNPRWEQTHLTYRIENYTPDLPRADVDHAIEKAFQLWSNVTPLTFTKVSEGQADIMISFVRGDHRDNSPFDGPGGNLAHAFQPGPGIGGDAHFDEDERWTNNFREYNLHRVAAHQLGHSLGLSHSTDIGALMYPSYTFSGDVQLAQDDIDGIQAIYGRSQNPVQPIGPQTPKACDSKLTFDAITTIRGEVMFFKDRFYMRTNPFYPEVELNFISVFWPQLPNGLEAAYEFADRDEVRFFKGNKYWAVQGQNVLHGYPKDIYSSFGFPRTVKHIDAALSEENTGKTYFFVANKYWRYDEYKRSMDPGYPKMIAHDFPGIGHKVDAVFMKDGFFYFFHGTRQYKFDPKTKRILTLQKANSWFNCRKN
As to B2, the “collagen degradation on SDS PAGE” value in data set [1] is “did not show degradation of type-1 collagen”.

These data come from patent publication US20190233808.
